Measurements as given in article PMC2885798.

Key:
[1] = molecular target: nesprin-1α fragment SLR2-7 (full-length nesprin-1α minus the transmembrane domain) (human); experiment: dynamic light scattering
[2] = molecular target: nesprin-1α fragment SLR2-7ΔAD (SLR2-7 with the adaptive domain deleted) (human); experiment: dynamic light scattering

Row | stoichiometry N [1] | stoichiometry N [2] | Substance
1 | 2 | – | nesprin-1α fragment SLR2-7 (full-length nesprin-1α minus the transmembrane domain) (domain or fragment)
2 | – | 2 | nesprin-1α fragment SLR2-7ΔAD (SLR2-7 with the adaptive domain deleted) (domain or fragment)
